This is an account of results in patent US20150344540A1, “NOVEL GLP-1 RECEPTOR AGONISTS WITH CHOLESTEROL EFFLUX ACTIVITY” (NOVO NORDISK A/S, priority 2012, published 2015).

First the molecules themselves.
B1: [Aib8,Glu23,Val25,Gln26,Glu34,Ala35,Val36,Ala37]-GLP-1-(7-37)-peptidyl-Glu-Phe-Leu amide (peptide)
peptide: H[Aib]EGTFTSDVSSYLEGEAVQEFIAWLVEAVAEFL-NH2
modifications: N-terminus assumed
SMILES: CC[C@H](C)[C@H](NC(=O)[C@H](Cc1ccccc1)NC(=O)[C@H](CCC(=O)O)NC(=O)[C@H](CCC(N)=O)NC(=O)[C@@H](NC(=O)[C@H](C)NC(=O)[C@H](CCC(=O)O)NC(=O)CNC(=O)[C@H](CCC(=O)O)NC(=O)[C@H](CC(C)C)NC(=O)[C@H](Cc1ccc(O)cc1)NC(=O)[C@H](CO)NC(=O)[C@H](CO)NC(=O)[C@@H](NC(=O)[C@H](CC(=O)O)NC(=O)[C@H](CO)NC(=O)[C@@H](NC(=O)[C@H](Cc1ccccc1)NC(=O)[C@@H](NC(=O)CNC(=O)[C@H](CCC(=O)O)NC(=O)C(C)(C)NC(=O)[C@@H](N)Cc1c[nH]cn1)[C@@H](C)O)[C@@H](C)O)C(C)C)C(C)C)C(=O)N[C@@H](C)C(=O)N[C@@H](Cc1c[nH]c2ccccc12)C(=O)N[C@@H](CC(C)C)C(=O)N[C@H](C(=O)N[C@@H](CCC(=O)O)C(=O)N[C@@H](C)C(=O)N[C@H](C(=O)N[C@@H](C)C(=O)N[C@@H](CCC(=O)O)C(=O)N[C@@H](Cc1ccccc1)C(=O)N[C@@H](CC(C)C)C(N)=O)C(C)C)C(C)C
B2: [Aib8,Lys23,Val25,Glu34,Lys35,Aib36,Lys37]-GLP-1-(7-37)-peptidyl-Glu-Phe-Leu amide (peptide)
peptide: H[Aib]EGTFTSDVSSYLEGKAVKEFIAWLVEK[Aib]KEFL-NH2
modifications: N-terminus assumed
SMILES: CC[C@H](C)[C@H](NC(=O)[C@H](Cc1ccccc1)NC(=O)[C@H](CCC(=O)O)NC(=O)[C@H](CCCCN)NC(=O)[C@@H](NC(=O)[C@H](C)NC(=O)[C@H](CCCCN)NC(=O)CNC(=O)[C@H](CCC(=O)O)NC(=O)[C@H](CC(C)C)NC(=O)[C@H](Cc1ccc(O)cc1)NC(=O)[C@H](CO)NC(=O)[C@H](CO)NC(=O)[C@@H](NC(=O)[C@H](CC(=O)O)NC(=O)[C@H](CO)NC(=O)[C@@H](NC(=O)[C@H](Cc1ccccc1)NC(=O)[C@@H](NC(=O)CNC(=O)[C@H](CCC(=O)O)NC(=O)C(C)(C)NC(=O)[C@@H](N)Cc1c[nH]cn1)[C@@H](C)O)[C@@H](C)O)C(C)C)C(C)C)C(=O)N[C@@H](C)C(=O)N[C@@H](Cc1c[nH]c2ccccc12)C(=O)N[C@@H](CC(C)C)C(=O)N[C@H](C(=O)N[C@@H](CCC(=O)O)C(=O)N[C@@H](CCCCN)C(=O)NC(C)(C)C(=O)N[C@@H](CCCCN)C(=O)N[C@@H](CCC(=O)O)C(=O)N[C@@H](Cc1ccccc1)C(=O)N[C@@H](CC(C)C)C(N)=O)C(C)C
B3: [Aib8,Glu23,Val25,Leu33,Glu34,Lys35,Aib36,Lys37]-GLP-1-(7-37)-peptidyl-Glu-Trp-Leu amide (peptide)
peptide: H[Aib]EGTFTSDVSSYLEGEAVKEFIAWLLEK[Aib]KEWL-NH2
modifications: N-terminus assumed
SMILES: CC[C@H](C)[C@H](NC(=O)[C@H](Cc1ccccc1)NC(=O)[C@H](CCC(=O)O)NC(=O)[C@H](CCCCN)NC(=O)[C@@H](NC(=O)[C@H](C)NC(=O)[C@H](CCC(=O)O)NC(=O)CNC(=O)[C@H](CCC(=O)O)NC(=O)[C@H](CC(C)C)NC(=O)[C@H](Cc1ccc(O)cc1)NC(=O)[C@H](CO)NC(=O)[C@H](CO)NC(=O)[C@@H](NC(=O)[C@H](CC(=O)O)NC(=O)[C@H](CO)NC(=O)[C@@H](NC(=O)[C@H](Cc1ccccc1)NC(=O)[C@@H](NC(=O)CNC(=O)[C@H](CCC(=O)O)NC(=O)C(C)(C)NC(=O)[C@@H](N)Cc1c[nH]cn1)[C@@H](C)O)[C@@H](C)O)C(C)C)C(C)C)C(=O)N[C@@H](C)C(=O)N[C@@H](Cc1c[nH]c2ccccc12)C(=O)N[C@@H](CC(C)C)C(=O)N[C@@H](CC(C)C)C(=O)N[C@@H](CCC(=O)O)C(=O)N[C@@H](CCCCN)C(=O)NC(C)(C)C(=O)N[C@@H](CCCCN)C(=O)N[C@@H](CCC(=O)O)C(=O)N[C@@H](Cc1c[nH]c2ccccc12)C(=O)N[C@@H](CC(C)C)C(N)=O
B4: [Aib8,Glu23,Val25,Glu34,Lys35,Phe36,Lys37]-GLP-1-(7-37)-peptidyl-Glu-Phe-Phe amide (peptide)
peptide: H[Aib]EGTFTSDVSSYLEGEAVKEFIAWLVEKFKEFF-NH2
modifications: N-terminus assumed
SMILES: CC[C@H](C)[C@H](NC(=O)[C@H](Cc1ccccc1)NC(=O)[C@H](CCC(=O)O)NC(=O)[C@H](CCCCN)NC(=O)[C@@H](NC(=O)[C@H](C)NC(=O)[C@H](CCC(=O)O)NC(=O)CNC(=O)[C@H](CCC(=O)O)NC(=O)[C@H](CC(C)C)NC(=O)[C@H](Cc1ccc(O)cc1)NC(=O)[C@H](CO)NC(=O)[C@H](CO)NC(=O)[C@@H](NC(=O)[C@H](CC(=O)O)NC(=O)[C@H](CO)NC(=O)[C@@H](NC(=O)[C@H](Cc1ccccc1)NC(=O)[C@@H](NC(=O)CNC(=O)[C@H](CCC(=O)O)NC(=O)C(C)(C)NC(=O)[C@@H](N)Cc1c[nH]cn1)[C@@H](C)O)[C@@H](C)O)C(C)C)C(C)C)C(=O)N[C@@H](C)C(=O)N[C@@H](Cc1c[nH]c2ccccc12)C(=O)N[C@@H](CC(C)C)C(=O)N[C@H](C(=O)N[C@@H](CCC(=O)O)C(=O)N[C@@H](CCCCN)C(=O)N[C@@H](Cc1ccccc1)C(=O)N[C@@H](CCCCN)C(=O)N[C@@H](CCC(=O)O)C(=O)N[C@@H](Cc1ccccc1)C(=O)N[C@@H](Cc1ccccc1)C(N)=O)C(C)C
B5: [Aib8,Glu23,Val25,Arg26,Glu34,Arg35,Val36,Arg37]-GLP-1-(7-37)-peptidyl-Glu-Phe-Leu-Lys amide (peptide)
peptide: H[Aib]EGTFTSDVSSYLEGEAVREFIAWLVERVREFLK-NH2
modifications: N-terminus assumed
SMILES: CC[C@H](C)[C@H](NC(=O)[C@H](Cc1ccccc1)NC(=O)[C@H](CCC(=O)O)NC(=O)[C@H](CCCNC(=N)N)NC(=O)[C@@H](NC(=O)[C@H](C)NC(=O)[C@H](CCC(=O)O)NC(=O)CNC(=O)[C@H](CCC(=O)O)NC(=O)[C@H](CC(C)C)NC(=O)[C@H](Cc1ccc(O)cc1)NC(=O)[C@H](CO)NC(=O)[C@H](CO)NC(=O)[C@@H](NC(=O)[C@H](CC(=O)O)NC(=O)[C@H](CO)NC(=O)[C@@H](NC(=O)[C@H](Cc1ccccc1)NC(=O)[C@@H](NC(=O)CNC(=O)[C@H](CCC(=O)O)NC(=O)C(C)(C)NC(=O)[C@@H](N)Cc1c[nH]cn1)[C@@H](C)O)[C@@H](C)O)C(C)C)C(C)C)C(=O)N[C@@H](C)C(=O)N[C@@H](Cc1c[nH]c2ccccc12)C(=O)N[C@@H](CC(C)C)C(=O)N[C@H](C(=O)N[C@@H](CCC(=O)O)C(=O)N[C@@H](CCCNC(=N)N)C(=O)N[C@H](C(=O)N[C@@H](CCCNC(=N)N)C(=O)N[C@@H](CCC(=O)O)C(=O)N[C@@H](Cc1ccccc1)C(=O)N[C@@H](CC(C)C)C(=O)N[C@@H](CCCCN)C(N)=O)C(C)C)C(C)C
B6: [Aib8,Glu23,Val25,Gln30,His31,Glu34,Lys35,Leu36,Lys37]-GLP-1-(7-37)-peptidyl-Glu-Phe-Leu amide (peptide)
peptide: H[Aib]EGTFTSDVSSYLEGEAVKEFIQHLVEKLKEFL-NH2
modifications: N-terminus assumed
SMILES: CC[C@H](C)[C@H](NC(=O)[C@H](Cc1ccccc1)NC(=O)[C@H](CCC(=O)O)NC(=O)[C@H](CCCCN)NC(=O)[C@@H](NC(=O)[C@H](C)NC(=O)[C@H](CCC(=O)O)NC(=O)CNC(=O)[C@H](CCC(=O)O)NC(=O)[C@H](CC(C)C)NC(=O)[C@H](Cc1ccc(O)cc1)NC(=O)[C@H](CO)NC(=O)[C@H](CO)NC(=O)[C@@H](NC(=O)[C@H](CC(=O)O)NC(=O)[C@H](CO)NC(=O)[C@@H](NC(=O)[C@H](Cc1ccccc1)NC(=O)[C@@H](NC(=O)CNC(=O)[C@H](CCC(=O)O)NC(=O)C(C)(C)NC(=O)[C@@H](N)Cc1c[nH]cn1)[C@@H](C)O)[C@@H](C)O)C(C)C)C(C)C)C(=O)N[C@@H](CCC(N)=O)C(=O)N[C@@H](Cc1c[nH]cn1)C(=O)N[C@@H](CC(C)C)C(=O)N[C@H](C(=O)N[C@@H](CCC(=O)O)C(=O)N[C@@H](CCCCN)C(=O)N[C@@H](CC(C)C)C(=O)N[C@@H](CCCCN)C(=O)N[C@@H](CCC(=O)O)C(=O)N[C@@H](Cc1ccccc1)C(=O)N[C@@H](CC(C)C)C(N)=O)C(C)C
B7: [Aib8,Glu23,Val25,Glu34,Lys35,Aib36,Leu37]-GLP-1-(7-37)-peptidyl-Ser-Phe-Leu amide (peptide)
peptide: H[Aib]EGTFTSDVSSYLEGEAVKEFIAWLVEK[Aib]LSFL-NH2
modifications: N-terminus assumed
SMILES: CC[C@H](C)[C@H](NC(=O)[C@H](Cc1ccccc1)NC(=O)[C@H](CCC(=O)O)NC(=O)[C@H](CCCCN)NC(=O)[C@@H](NC(=O)[C@H](C)NC(=O)[C@H](CCC(=O)O)NC(=O)CNC(=O)[C@H](CCC(=O)O)NC(=O)[C@H](CC(C)C)NC(=O)[C@H](Cc1ccc(O)cc1)NC(=O)[C@H](CO)NC(=O)[C@H](CO)NC(=O)[C@@H](NC(=O)[C@H](CC(=O)O)NC(=O)[C@H](CO)NC(=O)[C@@H](NC(=O)[C@H](Cc1ccccc1)NC(=O)[C@@H](NC(=O)CNC(=O)[C@H](CCC(=O)O)NC(=O)C(C)(C)NC(=O)[C@@H](N)Cc1c[nH]cn1)[C@@H](C)O)[C@@H](C)O)C(C)C)C(C)C)C(=O)N[C@@H](C)C(=O)N[C@@H](Cc1c[nH]c2ccccc12)C(=O)N[C@@H](CC(C)C)C(=O)N[C@H](C(=O)N[C@@H](CCC(=O)O)C(=O)N[C@@H](CCCCN)C(=O)NC(C)(C)C(=O)N[C@@H](CC(C)C)C(=O)N[C@@H](CO)C(=O)N[C@@H](Cc1ccccc1)C(=O)N[C@@H](CC(C)C)C(N)=O)C(C)C

Where no end group is shown, it is not given here. [ ]: non-standard residue; d: D form. Aib = CC(C)(N)C(=O)O

This test has as its target human GLP-1 receptor (human, UniProt P43220). The test can be described thus: cell-based or functional assay.
Turning to B1, the “CRE luciferase EC50, 0% HSA” value came out at 622 pM and the “CRE luciferase EC50, 1% HSA” value amounted to 273 pM.
On the same counts, the results for B2 are 311 pM and 173 pM.
For B3, in that order: 659 pM and 320 pM.
Consider HGEGTFTSDVSSYLEGEAVKEFIAWLVEKVKEFLG [[Gly8,Glu23,Val25,Glu34,Lys35,Val36,Lys37]-GLP-1-(7-37)-peptidyl-Glu-Phe-Leu-Gly], for which the “CRE luciferase EC50, 0% HSA” value was 464 pM and the “CRE luciferase EC50, 1% HSA” value came to 122 pM.
On the same counts, the results for B4 are 1220 pM and 431 pM.
On the same counts, the results for B5 are 433 pM and 118 pM.
Regarding B6, the “CRE luciferase EC50, 0% HSA” value was determined as 77 pM and the “CRE luciferase EC50, 1% HSA” value amounted to 25 pM.
For B7, in that order: 872 pM and 368 pM.
